Measurements reported in the nanobody polyreactivity screen of Harvey et al. (2022).

assay: yeast display, Sf9 membrane polyspecificity reagent, FACS + sequencing; frameworks hold sequencing errors
In short: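 A synthetic nanobody library was expressed on Saccharomyces cerevisiae BJ5465 by galactose induction for 36–48 hours. The library was stained for 1 hour at 4 °C with 10% biotinylated, detergent-solubilized Sf9 membrane reagent and enriched with streptavidin microbeads before FACS. Low and high (top ~1%) gates were set on anti-HA fluorescence for expression and streptavidin fluorescence for reagent binding, and each polyreactivity label reflects the gate of origin.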

Sequence	polyreactivity (PSR sort gate)
QVQLVESGGGLVQAGGSLRLSCAASGLTFQWYTMGWYRQAPGKERELVAAISSRGGSTYYADSVKGRFTISRDNAKNTVYLQMNSLKPEDTAVYYCAVRLRWYFFLMDYWGQGTQVTVSS	high polyreactivity
QVQLVESGGGLVQAGGSLRLSCAASGLTFQYYVMGSYRQAPGKERELVAAISSGGSTYYADSVKGRFTISRDNAKNTVYLQMNSLKPEDTAVYYCAAEAGYAYPLWPYTFPFEYWGQGTQVTVSS	low polyreactivity
QVQLVESGGGLVQAGGSLRLSCAASGLTFRKYAMGWYRPAPGKEREWVAAITRGGSTNYADSVKGRFTISRDNAKNTVYLQMNSLKPEDTAVYYCAAQYTYRFPYPGYATTHDYWGQGTQVTVSS	high polyreactivity
QVQLVESGGGLVQAGGSLRLSCAASGLTFRPYAMGWYRPAPGKERELVAAISTTGGSTYYADSVKGRFTISRDNAKNTVYLQMNSLKPEDTAVYYCAAPTSQRRVLSYRPYGYWGQGTQVTVSS	high polyreactivity
QVQLVESGGGLVQAGGSLRLSCAASGLTFRQYAMGWYRQAPGKERELVAAIDTGASTNYADSVKGRFTISRDNAKNTVYLQMNSLKPEDTAGYYCNAELWYGPDELTGDYWGQGTQVTVSS	low polyreactivity
QVQLVESGGGLVQAGGSLRLSCAASGLTFRWYAMGWYRQAPGKERELVAAISSTGRTNYADSVKGRFTISRDNAKNTVYLQMNSLKPEDTAVYYCNKTQEFVHKYELDYWGQGTQVTVSS	low polyreactivity
QVQLVESGGGLVQAGGSLRLSCAASGLTFRYYSMGWYRQAPGKERELVAAISRRSGSTYYADSVKGRFTISGDNAKNTVYLQMNSLKPEDTAVYYCNADSTITGNLKRYDYWGQGTQVTVSS	high polyreactivity
QVQLVESGGGLVQAGGSLRLSCAASGLTFSFNAMGWYRQAPGKEREFVAAISWSGGSTYYADSVKGRFTISRDNAKITVYLQMNSLKPEDTAVYYCAAESRITRYRHTRYYYWGQGTQVTVSS	high polyreactivity
QVQLVESGGGLVQAGGSLRLSCAASGLTFSLNAMGWYRPAPGKERELVAAIRGSGGSTYYADSVKGRFTISRDNAKNTVYLQMNSLKPEDTAVYYCAASPKRVLRESGVYWGQGTQVTVSS	high polyreactivity
QVQLVESGGGLVQAGGSLRLSCAASGLTFSLNAMGWYRQAPGKERELVAAISFSGGSTYYADSVKGRFTISRDNAKNTVYLQMNSLKPEDTAVYYCAVRKRVGRGRYGYWGQGTQVTVSS	high polyreactivity
QVQLVESGGGLVQAGGSLRLSCAASGLTFSLYAMGWYRQAHGKERELVAAISWTGGSTYYADSVKGRFTISRDNAKNTVYLQMNSLKPEDTAVYYCNARYTLFARYGYDYWGQGTQVTVSS	low polyreactivity
QVQLVESGGGLVQAGGSLRLSCAASGLTFSRNAMGWYRQAPGKEWELVAAISGSGGSTYYADSVKGRFTISRDNAKYTVYLQMNSLKPEDTAVYYCAKVSRSKQKFDYWGQGTQVTVSS	high polyreactivity
QVQLVESGGGLVQAGGSLRLSCAASGLTFSRYAMGWYRQAPGKERELVAAITSIGGSTYYADSVKGRFTISRDNAKNTVYLQMNSLKPEDTAVYYCRAFFRRDYWGQGTQVNVSS	high polyreactivity
QVQLVESGGGLVQAGGSLRLSCAASGLTFSSNAMGWSRQAPGKERELVAVITNGGSTNYADSVKGRFTISRDNAKNTVYLQMNSLKPEDTAVYYCAKDGGPAQDIGMDYWGQGTQVTVSS	low polyreactivity
QVQLVESGGGLVQAGGSLRLSCAASGLTFSVYAMGWSRQAPGKERELVASITRSGGSTYYADSVKGRFTISRDNAKNTVYLQMNSLKPEDTADYYCNADKYYGFDYWGQGTQVTVSS	high polyreactivity
QVQLVESGGGLVQAGGSLRLSCAASGLTFSYYAMGWYRQAPGKERELVAAIDYSGGTTYADSVKGRFTISRDNAKNTVYLQMNSLKPEDTAVYYCAREWYQYSPYHRFDYWGQGTQVTVSS	high polyreactivity
